We go through 47 sequences from the NTF2 design screens of Basanta et al. (2020).

The data set is described as follows: protease stability score; higher = more stable; yeast display proteolysis, trypsin and chymotrypsin.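 Also: relative to predicted unfolded state with 0 unfolded-like and 1 meaning tenfold more protease.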
“REEEEHAEKVVKLMLHWLHTGDEEKFINNADPNVKLQIDGQRIHGWDDWERRMNEKLQRVDYIDNVVIRHIDNQGDKAIFHGELRGIQGDKHFTFHVELRIRVVNGVIHEMEIIIR” came in with a protease stability score of 2.05.
With “SELEDATEFAIKVLLEVLRTGDWLEFEKMVDPNVRSSINGVELHGRRRLSHEILREWMELGIKHLDVHLKHKELQGDKLILIVELRLDVNGREIRRETELILLKVDGRWLLTEVRVK” the figure was 1.58.
To “DELEHLERQLAEEILEDFMTGNEENFDHLADPNVKHDINGVEIIGREHYVEWWRRIKNVKIELKRYHIIGDKATIDGHEVFEGRRHKMILELDIVNGQIKRVRFELR” belongs 0.986.
With “DEEEDHERRFLEELLRDWVTGDENKLDELFDPDARNYINGRRYHGREDVREVLKLLKDRIDHIEMTDIKDVKIQGDKMRFDTRVHLRQGDKTIRIKTHFVIWKVNGKWRMEAVVIV” the figure was 1.02.
Sequence “DEDSEMVWRMLEDWLHNFLTGNEELLEHLMDPNARFEQGDKEIHGREKIAKFLRKELEDLGVKIEFRDTSIKSINGRAHNDGTNIIRVNGREIRRDTRIDLTVIDGRIKEIRIEIN” showed a protease stability score of 1.28.
To “SEEDKWAEIMARLMSYLNHTGDEENFDRLADPDVRMDINGREVHGRETFNRYLRHIRIRFHDLISRDSTEVNGVLIIHGESDITIEYDGVRLRDHPKSVFYVLKINGRWRIKSISFH” belongs 1.41.
Take “DESQEIAIEASKRLYNHLLTGDEDNLKRLLDPHVRIEIDGRDIHGMEEVTRLKREWRFDSIEIRVDSVRDVNGRLDVKGHMRYHVRIGDKSHDREVKMHLTAEKIDGRWHNKSIHFE”: the protease stability score came out at 1.26.
To “DENEHQTRIWNEIFIKIFLTGDWKRLSDMADPHVRSIINGQDLHGMENLSKIVEEIREELRVRSVHLHDIKVINGVAKVDTRLDMEYGDKRTDYNIEIHTLKVDGRWHLKEIKLV” belongs 0.292.
To “DEDEESSESFYRLWVELFETGNFEILERLFDPHVRIKIGDKHIHGMEEHIRESFHIIERFKGVQIRVDEVRLFDGRMDVHGELIINGQSVRMRIIVRKVNGRWHLTEMILD” belongs 1.48; to “DELDEELHKLFEKYLRSHLTGDFHSLERLLDPNARLIWIVDGKMINIHGREDISRFLREWEEEARHHHHELKEVDTQGNYFHSRMHEDGHINGVRRKIHVTHNIVMIDGKLESITHIII”, 1.08.
Regarding “SEDEEAAHWLTLVLIELFRTGDEDSFTKLLDPNARMHVGDKDFHGRHHILHWILHFLRELGVDHRDMKVEDQHFYDGRLELHVTIIIIVGDKKIRIESHFYVEKVNGRWLVKKIHIH”, the protease stability score worked out at 1.41.
With “SEEEEEAERIYRNWLHNLHTGNEESERLMADPDVRYEINGVERVGWEEVHHFLREIRVHLRHVEIKHSDLINGRAHIEGHVDMEVRVNGVTMRIRTDTILRVVVIDGRLKSVSQEIL” the figure was 0.648; with “DEDQEEMYKALNHLLTLLKTGDEHVLKRLIDPHVRVEIDGKDRHGMSFLLEIIKEELIRIDHIKDFRIHHVEMVGDKAENHVKLIGEWNGKEFRLRMHVYSWKFDGKWIMKSIKIE”, 1.75; with “DENHRHASELIEIFRHALATGDWETLYRLMDPHTRVLINGKDLHGMEEHLTFLLEEHERLGIENIDVRVRIDHREVQGDKIIIHITIHLNFNGREIYFESRIIVSKFNGRWSIESLEIR”, 1.42.
To “SEEDEVYEEALKITERLERTGNEEDLRTYADPHAKLRFIVDGKTIEIHGREDFVHEVVRYWKRFKNLTVRIERVEFQGDKLHLIGRLHIDGREVIIHMLSVKFNGRWFVENLHIEFV” belongs 1.41; to “TEEEEHASRIARLWLDMLLTGDWHTLDRLLDPHVRLEVNGQERIGREQIIKFEEERKRQLRINDVRTRHIHSQGDKLHIVTEADGEIDGKRTNVDTRIQIKVVDGVVEEVKFDIK”, 0.736; to “SEEEKEYEHWMRLYLHWRLTGDEEAEKRNADPNTRVEFNGKELHGMEVVSEFIIKLRNEMRFEFLEIDDMRVIDGVSHFDVTVDGVIDGKRVRLTLHIILIVINGKIHHIQEEWK”, 1.43.
“DEDEKMAREFVELWVHLLSTGNEDLEKHLVDPHVRVDINGQEIHGRNHLITFLIQIKNLTFEFRHVRITVVGDKIQVHIHGIVQVNGQWREVMIDFEAEKINGRWLQKQFHVKIH” gave a protease stability score of 1.96.
To “DEEEEIIKEQLRILKKNLETGDWKAVLKMFDPNVREDVNGQTLIGRELWAQIFVEMGVDHIIERRVDIQGDKIRLYGQLDQGDKKHTTHIHARKVDGRWTFESVHVR” belongs 1.08; to “SEEEELARHIFELWIKTLRTGDEKLLRELADPHVQVILLVDGRHLENHGWEEFVRIFKEWRIHRVHVHDVKVFENRIHMDGTIDYEIGDKRFITKRIVDLVVINGRLKRLEIQIH”, 2.66.
With “DELAEYAKEVIERIDHSITTGDERSVKRLLDPDVKLLIGDKELHGREDWEEWMKRIDHVSVRDSRIKEVKVYDGRLRIDGHKRMYYFNENEEREHTTRVVIILLKIDGRWVMHSVHFI” the figure was 1.4; with “SEAERDAKELLELIVTTMRTGDEETLNRLMDPHTRLHVNGRDLIGRELMTEFLHEIRIEDSRTRDVRVFNGRLEVEGKLRGDWNGVEREVETRYIVEKVNGRWLLHSVTFE”, 0.413; with “SREDELREEFLRRILEVLRTGDFDEWKKYLDPDTRNDINGVDWVGRETAAHELERMYRHIRIKDTKVHDVRVQGDKVHIDVRVLIEFDGRERILETHIVVEKVDGRWHLKHVRFN”, 1.62.
The sequence “DEEERLLHEAFEELVRVWETGDEEEKLRYMDPNTIIVINGVELHGREEARKHAHHLRIHRFHLKDYRFQGDKVHLDMHIDGFINGQKMRTDVRFQVHKIDGRWVITHSIWI” registered a protease stability score of 1.71.
Turning to “DEDTELAERWVELFRKSVETGDEHKLEKLLDPHVKLDIGDKRYHGRELAVDTLKTMIDEMRSDHVTIDRVDVFDGRVILHSRIESTVDGRRTELEMRIVARKIDGRWVVESLEIN”, the protease stability score was 1.49.
In the case of “DEEEEILRTFIRLMHEAWLTGDWKTFEEMLDPHARLHINGKDLHGREQMARRIEELGIKHVEDKDMETQGNKIHLKQIVYVNGRTFELRQFIIKVNGRWVIQHVEVITR”, the protease stability score came out at 1.38.
To “DEEDKMVRVLVELWVENFITGDEEKLYELMDPDTRLEIDGVENHGMEKAIEFLERHREHYGVDHIHLIIHEVKHQGNKAHIDGILEFRQGDKQIELHWELHFEVVNGRMKEVHVNTR” belongs 2.29; to “DEEEETLRWVKELLKHLSKTGDFEKIVNYMDPDVRLNVDGVELVGMHHLERLAKEIRFKIHDLHPRRERIFDGKIQMDVEIDRIIHYGDKTTRERTTIIIIFEKVNGRWLIHTIHVH”, 1.17; to “SEMEEVAVREWEILVKALRTGDERIISELMDPHARVDYNGRQLHGREEVKKFLEEIRIVTHHTEIKDHEYQGNKLIMHGHVDVENEYGDKTERIDTHIHIILRKVNGRWFITEIDIR”, 2.53.
To “DEERQTLEEWARELLQIHKTGDEERHKEYADPDDLLRIGDKDFHGMEHVLHALVQHWEKMGVKHLEIKRLRVINGVMHVEGVLHVGDKTHDVKLHLFIFNGRIERVEIRIE” belongs 1.33; to “DETKEYAKEMFEILKESLETGDWKKIRHLADPNVRLHIGEFEHHGWKEFIHFFREFLHHLRLEDVETKHIEVQGDKMILRTTLHLRQGDKSRDLDVIIIYRKIDGRWMLHSVEIR”, 1.4; to “TEERKEMEEAWDRFVHNIHTGDEHSLLKLVDPHVRVQIGDKEVHGWRYLLQLLRDIITKVKNLTVDLRIEDERMIGNYIELEVILVINFENRYHFIRYHVRHEKVDGKWHLKEISRD”, 1.08.
To “SEVEEDIRKWLKEHTDSIRTGDEERMLRNMDPHVRVDIDGVEHHGWEHLEEFIHRLTKKIKNMRVDWHRVRFQGDKAEIDGELDIDGRVTHVHIHSIKVDGRWYIKEIYIT” belongs 1.24; to “SEEQEHTREAMEVYLHLMHTGDWDRFRELVDPNVRMNINGVDLHGWEELTRFMEIFWRDLGFDHFKIHEMRIYGEKSHIRGESIIGDKSREVHIHVVIVNGRIKSEKFVET”, 0.83; to “DEEHQHSLARTLATALRTGDPEKMKDLADKDVKVVVGDKHIKGRKDAKKWAKDWRDRYDHAQVDDVNVQGENVRIVMNVEVDGHNVVVVMTAIIDGDQVKNVKVTARNEEQEKKMKK”, 0.252.
“DEDHELVHRAIRDLFRALDTGDEDALEEMMDPHTRLHVGDKIYHGRDNVLRFWRRLGVDHVKVHLHDVRIQGEKIDQNTELRIQIGDKRITTETRIIMFKFDGRWRRESVHIE” displayed a protease stability score of 1.01.
In turn, “NEWQEILLRISEKILKDLFTGNEEVWEKLVDPDAQVHINGKEVHGREEALHFLKELKDELRVEHLFIRDVKLQGDKVSLTSESRGNVNGVRRDMKVEIIVIVINGRVKHEKFIII” showed a protease stability score of 1.37.
For the sequence “DHIEEDIEEAERIMKEVNHTGDWETLERNFDPNVRLDIDGRTFHGMETYTKWFREIRIEDSRVKSIELQGDKIRYDTILHGIINGKRDTVKTHLIAVKVNGRWFIKVYSLH”, the protease stability score was determined as 1.05.
To “DEEEKWMRNLTEWLLKSLTTGDFESFNRMFDPRTRMHVDGREFHGREEVERYLREFDDKLGADHRESDLEHIEVQGNKARFHTTLKFDIGDKHLRIDTHLVIVKINGQWRIRHVEVR” belongs 0.839.
To “DEEKNLIIELVHLFLVAFWTGNEELLRHLADPDVRFEIDGREHHGREELEKHLEHWWMKIEHIEEKEIRVIDGRVHIDGHVRGTLIINGRENRISYDVEIHAEVIDGRFKYVKVKQK” belongs 2.48; to “DHEEKIWEEVLKELVHQFLTGDWKTRTQMADPEVRVESRVGDKFVRMHGREYLRMLMEFLHEQIKNATVTLHSFRVVDGRNEIKLRAEIGDKTHEIDMHYFVVDGRIKSLHVRTWEL”, 1.05; to “DEEEEMIEKIFKHLVEALRTGDWRQLEKLFDPNVRIEIGDKHSVGREEAVKFLEEWRKRADHIEHIDFRNRRSVDGRIEIEGRHLGHIDGRLVNTRVEFEIVIVDGKIEYNRLHVL”, 1.58.
To “DETEEMIKRHMDKLFRAVRTGDWDQFVKLADPNTRIEVGDFHYHGWERFSEFMSELRIHRFRMHDSEVVNGRVHLHTEEDGEVNGKRRESRVHRVLLKIDGRWHLHSVHIE” belongs 0.909; to “SELDEDSEEAVREDIETIKTGNEEMFKRLVDPNARTDFNGKELVGREAVLHFWTMILKTMGVDHVHIEEVRIFNGRLIMHHTIHVGDKFIEVILFSEKFNGKWQIKEIEIR”, 0.053.
“DEEDEESHRLMRETIHLLLTGDEEVWAQLADPDVRVLFNGVDYHGREEFLRIWHHMVKEIRVDKHEIKTIEVQGDKVLSDIRMHVEFNGKRTKVRVNLRLQSINGRTKYLSIHIH” showed a protease stability score of 1.21.
As for “SEDEENAERFIQHWVHNMETGNEERLFELADPNVRLDVNGRDLIGREEFQKSMRWLINRVKNITVRVDKVTIQGNKLLVHTEVRVGDKHHETELIFLKVDGRWRIHEMRIV”, the protease stability score was found to be 1.52.
The sequence “SEEHKELRELIRITFEDLFTGDEDAFMRLFDPHTILHIGEKRYIGREIIIHALRWLGVDHMEIKHIDIQGEKVDMHMHLKVGDKSWTMHLHIEKFNGQWHSKHIEIR” gave a protease stability score of 1.95.
